Results on eight sequences are retold here after publication PMC11096372.

This data set has as its target Cas8b;Cas7b;Cas5b;Cas6b;Cas11b (Synechocystis sp. PCC 6714;Synechocystis sp. PCC 6714;Synechocystis sp. PCC 6714;Synechocystis sp. PCC 6714;Synechocystis sp. PCC 6714) (UniProt A0A068N831+A0A068N458+A0A068N1Y0+A0A068N831). Briefly: EMSA. The settings on record: crRNA-loaded Cascade; EMSA: 10 nM labeled DNA, Cascade 0-200 nM, 20 mM HEPES pH 7.5, 100 mM NaCl, 25 C, 1 h; 6% acrylamide gel, 0.5x TBE, cold room; Hill fit. On the technique in general: Mobility shift assays separate free from complexed probe on a gel.
“TAATACGACTCACTATAGGTCGCGGATCCATATTTATCACCGTGTCCCCAATCTGGATATTTTGTGTCTCGAGCACCACCGCTGAGCAATAACTAGC (double strand) [ATA-PAM 97 bp (synPAM-13)]”: the Kd – broadly, the equilibrium constant for the complex coming apart – stood at 24 nM. The sequence “TAATACGACTCACTATAGGTCGCGGATCCACCTTTATCACCGTGTCCCCAATCTGGATATTTTGTGTCTCGAGCACCACCGCTGAGCAATAACTAGC (double strand) [ACC-PAM 97 bp (synPAM-11)]” gave a Kd of 58.2 nM. The result for “TAATACGACTCACTATAGGTCGCGGATCCACATTTATCACCGTGTCCCCAATCTGGATATTTTGTGTCTCGAGCACCACCGCTGAGCAATAACTAGC (double strand) [ACA-PAM 97 bp (synPAM-9)]” reads 56.2 nM. The result for “TAATACGACTCACTATAGGTCGCGGATCCATGTTTATCACCGTGTCCCCAATCTGGATATTTTGTGTCTCGAGCACCACCGCTGAGCAATAACTAGC (double strand) [ATG-PAM 97 bp (synPAM-14)]” reads 18 nM. For the sequence “TAATACGACTCACTATAGGTCGCGGATCCATCTTTATCACCGTGTCCCCAATCTGGATATTTTGTGTCTCGAGCACCACCGCTGAGCAATAACTAGC (double strand) [ATC-PAM 97 bp (synPAM-15)]”, the Kd was found to be 47.7 nM.

“TAATACGACTCACTATAGGTCGCGGATCCATTTTTATCACCGTGTCCCCAATCTGGATATTTTGTGTCTCGAGCACCACCGCTGAGCAATAACTAGC (double strand) [ATT-PAM 97 bp (synPAM-16)]” registered a Kd of 59.7 nM. For the sequence “TAATACGACTCACTATAGGTCGCGGATCCACTTTTATCACCGTGTCCCCAATCTGGATATTTTGTGTCTCGAGCACCACCGCTGAGCAATAACTAGC (double strand) [ACT-PAM 97 bp (synPAM-12)]”, the Kd is 140 nM.

Turning to “TAATACGACTCACTATAGGTCGCGGATCCACGTTTATCACCGTGTCCCCAATCTGGATATTTTGTGTCTCGAGCACCACCGCTGAGCAATAACTAGC (double strand) [ACG-PAM 97 bp (synPAM-10)]”, the Kd amounted to 20.6 nM.
